# Experimental data: patent US20240317847A1 (Bayer, published 2024)
# Positions count from the first letter of the chain named. Names and notes keep the numbering of the source.
# T1: human IL-11 (human, UniProt P20809 22-199)
# T1 construct: bought from Invigate; also called hIL-11; hIL11
# T1 sequence: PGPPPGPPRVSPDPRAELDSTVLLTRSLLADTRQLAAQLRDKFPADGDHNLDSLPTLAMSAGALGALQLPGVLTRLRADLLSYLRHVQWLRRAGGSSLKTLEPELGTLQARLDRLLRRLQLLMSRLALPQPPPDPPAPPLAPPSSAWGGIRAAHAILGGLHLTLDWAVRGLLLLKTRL
# T2: murine IL-11 (mouse, UniProt P47873 22-199)
# T2 construct: bought from Invigate; also called mIL-11; mIL11
# T2 sequence: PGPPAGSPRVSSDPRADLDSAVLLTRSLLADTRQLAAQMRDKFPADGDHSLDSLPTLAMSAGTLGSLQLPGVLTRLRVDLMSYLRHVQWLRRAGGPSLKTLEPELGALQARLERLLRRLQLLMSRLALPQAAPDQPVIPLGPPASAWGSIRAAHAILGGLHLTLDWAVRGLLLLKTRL
# T3: human IL-11 (Invigate, e.g., lot #C121021-19) (human, UniProt P20809 22-199)
# T3 construct: Bought protein; also called hIL-11; hIL11
# T3 sequence: T1 sequence
# T4: murine IL-11 (Invigate, e.g., lot #C210819-09) (mouse, UniProt P47873 22-199)
# T4 construct: Bought protein; biotinylated where captured on streptavidin plates; also called mIL-11; mIL11
# T4 sequence: T2 sequence
# B1: TPP-18068 (antibody, mouse IgG1)
# heavy: EVQLLESGGGLVQPGGSLRLSCAASGFTFSSYGMHWVRQAPGKGLEWVSVISYDGSYKYYADSVKGRFTISRDNSKNTLYLQMNSLRAEDTAVYYCAAGVPDYWGQGTLVTVSSAKTTPPSVYPLAPGSAAQTNSMVTLGCLVKGYFPEPVTVTWNSGSLSSGVHTFPAVLQSDLYTLSSSVTVPSSTWPSETVTCNVAHPASSTKVDKKIVPRDCGCKPCICTVPEVSSVFIFPPKPKDVLTITLTPKVTCVVVDISKDDPEVQFSWFVDDVEVHTAQTQPREEQFNSTFRSVSELPIMHQDWLNGKEFKCRVNSAAFPAPIEKTISKTKGRPKAPQVYTIPPPKEQMAKDKVSLTCMITDFFPEDITVEWQWNGQPAENYKNTQPIMDTDGSYFVYSKLNVQKSNWEAGNTFTCSVLHEGLHNHHTEKSLSHSPGK
# light: QSVLTQPPSASGTPGQRVTISCTGSSSNIGAGYDVHWYQQLPGTAPKLLIYSNNERPSGVPDRFSGSKSGTSASLAISGLRSEDEADYYCAAWDDSLNGPVFGGGTKLTVLGQPKSSPSVTLFPPSSEELETNKATLVCTITDFYPGVVTVDWKVDGTPVTQGMETTQPSKQSNNKYMASSYLTLTARAWERHSSYSCQVTHEGHTVEKSLSRADCS
# notes: mIgG1, Lambda; also called WT; parent clone
# B2: TPP-26325 (antibody, V domains shown)
# VH: EVQLLESGGGLVQPGGSLRLSCAASGFTFSWYGMHWVRQAPGKGLEWVSVISYDGSYKYYADSVKGRFTISRDNSKNTLYLQMNSLRAEDTAVYYCAAGVPDYWGQGTLVTVSS
# VL: QSVLTQPPSASGTPGQRVTISCTGSSSNIGAGYDVHWYQQLPGTAPKLLIYSNNERPSGVPDRFSGSKSGTSASLAISGLRSEDEADYYCAAWDDSLNGPVFGGGTKLTVL
# notes: constant regions not restated
# B3: TPP-26330 (antibody, V domains shown)
# VH: B2 VH with W31F
# VL: B2 VL
# notes: constant regions not restated
# B4: TPP-26326 (antibody, V domains shown)
# VH: B2 VH with W31Y
# VL: B2 VL
# notes: constant regions not restated
# B5: TPP-26331 (antibody, V domains shown)
# VH: B2 VH with W31S, M34G
# VL: B2 VL
# notes: constant regions not restated
# B6: TPP-26328 (antibody, V domains shown)
# VH: B2 VH with W31S, G99T
# VL: B2 VL
# notes: constant regions not restated
# B7: TPP-26329 (antibody, V domains shown)
# VH: B2 VH with W31S, Y32W
# VL: B2 VL
# notes: constant regions not restated
# B8: TPP-31277 (antibody, human IgG4, V domains shown)
# VH: EVQLLESGGGLVQPGGSLRLSCAASGFTFSHYDMNWLRQAPGKGLEWVGVISYDGSNKFYADFVKGRFTISRDNSKNTLYLQMNSLRAEDTAVYYCARTPGSHFDYWGQGTLVTVSS
# VL: QSVLTQPPSASGTPGQRVTISCSGSSSNIGSNAVNWYQQLPGTAPKLLIYYDDLLPSGVPDRFSGSKSGTSASLAISGLRSEDEADYYCSAWDDSLNGVVFGGGTKLTVL
# notes: consecutive numbering; also called VL-N31S
# B9: TPP-31293 (antibody, human IgG4, V domains shown)
# VH: B8 VH with L37V
# VL: B8 VL with S31N
# notes: consecutive numbering; also called VH-L37V
# B10: TPP-31299 (antibody, human IgG4, V domains shown)
# VH: B8 VH
# VL: B8 VL with S31N, G98A
# notes: consecutive numbering; also called VL-G98A
# B11: TPP-31284 (antibody, human IgG4, V domains shown)
# VH: B8 VH
# VL: B8 VL with S31N, L55R
# notes: consecutive numbering; also called VL-L55R
# B12: TPP-31289 (antibody, human IgG4, V domains shown)
# VH: B8 VH with G16R
# VL: B8 VL with S31N
# notes: consecutive numbering; also called VH-G16R
# B13: TPP-31282 (antibody, human IgG4, V domains shown)
# VH: B8 VH
# VL: B8 VL with S31N, D53N
# notes: consecutive numbering; also called VL-D53N
# B14: TPP-31292 (antibody, human IgG4, V domains shown)
# VH: B8 VH with N35H
# VL: B8 VL with S31N
# notes: consecutive numbering; also called VH-N35H
# B15: TPP-31294 (antibody, human IgG4, V domains shown)
# VH: B8 VH with G49A
# VL: B8 VL with S31N
# notes: consecutive numbering; also called VH-G49A
# B16: TPP-31286 (antibody, human IgG4, V domains shown)
# VH: B8 VH with E1Q
# VL: B8 VL with S31N
# notes: consecutive numbering; also called VH-E1Q
# B17: TPP-31296 (antibody, human IgG4, V domains shown)
# VH: B8 VH with F63S
# VL: B8 VL with S31N
# notes: consecutive numbering; also called VH-F63S
# B18: TPP-31283 (antibody, human IgG4, V domains shown)
# VH: B8 VH
# VL: B8 VL with S31N, L54Q
# notes: consecutive numbering; also called VL-L54Q
# B19: TPP-31290 (antibody, human IgG4, V domains shown)
# VH: B8 VH with H31S
# VL: B8 VL with S31N
# notes: consecutive numbering; also called VH-H31S
# B20: TPP-31295 (antibody, human IgG4, V domains shown)
# VH: B8 VH with F59Y
# VL: B8 VL with S31N
# notes: consecutive numbering; also called VH-F59Y
# B21: TPP-31297 (antibody, human IgG4, V domains shown)
# VH: B8 VH
# VL: B8 VL with S31N, N97Q
# notes: consecutive numbering; also called VL-N97Q
# B22: TPP-31281 (antibody, human IgG4, V domains shown)
# VH: B8 VH
# VL: B8 VL with S31N, D52N
# notes: consecutive numbering; also called VL-D52N
# B23: TPP-31298 (antibody, human IgG4, V domains shown)
# VH: B8 VH
# VL: B8 VL with S31N, N97S
# notes: consecutive numbering; also called VL-N97S
# B24: TPP-31285 (antibody, human IgG4, V domains shown)
# VH: B8 VH
# VL: B8 VL with S31N, S90A
# notes: consecutive numbering; also called VL-S90A
# B25: TPP-31278 (antibody, human IgG4, V domains shown)
# VH: B8 VH
# VL: B8 VL with S31N, A33Y
# notes: consecutive numbering; also called VL-A33Y
# B26: TPP-31288 (antibody, human IgG4, V domains shown)
# VH: B8 VH with L11V
# VL: B8 VL with S31N
# notes: consecutive numbering; also called VH-L11V
# B27: TPP-31287 (antibody, human IgG4, V domains shown)
# VH: B8 VH with L5V
# VL: B8 VL with S31N
# notes: consecutive numbering; also called VH-L5V
# Target: T1, human IL-11
# Assay: SPR, antibody captured, IL-11 as analyte
# Procedure: (§1) Antibodies were captured via anti-mouse Fc IgGs (“Mouse antibody capture kit, Order No. BR100383, Cytiva) covalently amine coupled to a Series S CM5 sensor chip (Cytiva). The amine coupling was carried out according to the manufacturer's instructions using 1-ethyl-3-(3-dimethylaminopropyl) carbodiimide hydrochloride (EDC), N-hydroxysuccinimide (NHS) and ethanolamine HCl, pH 8.5 (“Amine Coupling Kit” BR-1000-50, Cytiva.). Human IL-11 (Invigate, e.g., lot #C121021-19), and murine IL-11 (Invigate, e.g., lot #C210819-09) were used as analytes. […] Based on that experiment an IL-11 concentration range was chosen to optimally determine kinetics and affinity of anti-IL-11 antibodies in multicycle kinetics mode. The sensor surface was regenerated with glycine pH 1.7 after each antigen injection. Obtained sensorgrams were double referenced (subtraction of reference flow cell signal and buffer injection) and were fitted to a 1:1 Langmuir binding model to derive kinetic data using the Biacore T200 Evaluation software or the Biacore Insight software.
# (§2) 42 hits from the IL-11 and […] screening analysis were selected, expressed by transient transfection of mammalian cells and purified as described in Example 15. Antibodies were then tested for human IL-11 and murine IL-11 binding by SPR as described in Example 16.
row,Binder,Kd
1,B1,12 nM
2,B2,6.4 nM
3,B3,9.5 nM
4,B4,9.3 nM
5,B5,15 nM
6,B6,12 nM
7,B7,14 nM

# Target: T2, murine IL-11
# Assay: SPR, antibody captured, IL-11 as analyte
# Procedure: as §1, §2
Binder,Kd,binding result
B1,0.86 nM,
B2,,no binding
B3,1.7 nM,
B4,1.2 nM,
B5,0.95 nM,
B6,1.3 nM,
B7,0.92 nM,

# Target: T3, human IL-11 (Invigate, e.g., lot …)
# Assay: SPR, Biacore 8K; antibody captured on anti-human IgG Fc chip, IL-11 analyte 0-50 nM, 1:1 fit
# Procedure: (§3) Antibody binding affinity to hIL-11 (Invigate, Germany, e.g., lot #C121021-19) and mIL-11 (Invigate, Germany, e.g., lot #C210819-09) was detected using Biacore 8K. Each antibody was captured on an anti-human IgG Fc antibody immobilized CM5 sensor chip (GE). hIL-11 and mIL-11 at different concentrations (0, 5, 15.82 and 50 nM) in 1×HBS-EP+ (pH 7.4) (GE healthcare) were injected over the sensor chip at a flow rate of 30 μL/min for an association phase of 120 s, followed by 200 s dissociation phase. The chip was then regenerated by 10 mM Glycine, pH 1.5 after each binding cycle.
# (§4) The sensorgrams of blank surface and buffer channel were subtracted from the test sensorgrams. The experimental data was fitted by 1:1 model using Langmiur analysis. Molecular weight of 19.3 kDa was used to calculate the molar concentration of human and mouse IL-11.
row,Binder,Kd
1,B8,9.4 nM
2,B9,4.8 nM
3,B10,18 nM
4,B11,11 nM
5,B12,9.6 nM
6,B13,13 nM
7,B14,11 nM
8,B15,11 nM
9,B16,9.1 nM
10,B17,9.4 nM
11,B18,48 nM
12,B19,290 nM
13,B20,20 nM
14,B21,8.7 nM
15,B22,170 nM
16,B23,9.3 nM
17,B24,7.6 nM
18,B25,2 nM
19,B26,11 nM
20,B27,9.3 nM

# Target: T4, murine IL-11 (Invigate, e.g., lot …)
# Assay: as above
# Procedure: as §3, §4
row,Binder,Kd
1,B8,12 nM
2,B9,12 nM
3,B10,16 nM
4,B11,15 nM
5,B12,14 nM
6,B13,19 nM
7,B14,19 nM
8,B15,17 nM
9,B16,12 nM
10,B17,12 nM
11,B18,41 nM
12,B19,300 nM
13,B20,33 nM
14,B21,14 nM
15,B22,130 nM
16,B23,13 nM
17,B24,18 nM
18,B25,1.2 nM
19,B26,15 nM
20,B27,13 nM
